Measured values taken from patent publication US20210180089A1, “NANOPARTICLES FOR TRANSFECTION” (LOXEGEN HOLDINGS PTY LTD, priority 2018, published 2021).
Ends that are not written are not given here.

Experiment: Average particle diameter of peptide/DNA nanoparticles by ZetaPALS dynamic light scattering
Format: physicochemical
Method: The DNA was diluted to 50-100 ug/mL in 5mM HEPES pH 7.4. A peptide solution at a concentration of 100-180 ug/mL in 5 mM HEPES was prepared. A 250 uL volume of the DNA solution was transferred into a 2 mL Eppendorf tube. Using a 100 uL peptide, an equal volume of the peptide solution was titrated, at an appropriate rate to avoid aggregation, into the DNA solution while vortexing. The solution slowly turns translucent and no visible particles should occur. The particle size is measured using a dynamic light scattering (DLS) instrument (such as the Brookhaven ZetaPALS). The particle size should be below 100 nm, preferably below 80 nm. The nanoparticles were filtered through a 0.22 um sterile filter. The formulation was stored in a refrigerator (2-8 deg C.) until desired for use and/or for PEGylation. Where PEGylated peptide/DNA nanoparticles are required, a PEG-Zn solution was prepared in a separate tube at a concentration of about 400 mg/mL. 25-100 uL of the PEG solution was slowly added to 500 uL of the peptide/DNA nanoparticle preparation, depending on the degree of PEG-coating required. The particle size was measured by DLS. The particle size should be about 100-140 nm depending on the amount of PEG added. The formulation was store in a refrigerator (2-8 deg C.). Above describes a range for the peptide/DNA ratio which can be used in one embodiment. In a preferred example, the ratios used for nanoparticle preparation were: 100 ug/mL DNA and 100 ug/mL peptide mixed at equal volume. PEGylation: 50 uL of 440 mg/mL PEG-IDA-Zn into 500 uL nanoparticles as prepared above.

| Substance | Average Particle Diameter (via ZETA Pals particle size analysis) (GFP, PEG) | Average Particle Diameter (via ZETA Pals particle size analysis) (GFP, non-PEG) | Average Particle Diameter (via ZETA Pals particle size analysis) (luciferase, PEG) | Average Particle Diameter (via ZETA Pals particle size analysis) (luciferase, non-PEG) |
| --- | --- | --- | --- | --- |
| (H-Lys-His-Lys-His-His-Lys-His-His-Lys-His-His-Lys-His-His-Lys-His-His-Lys-His-Lys)4-Lys-Lys-Lys-His-His-His-His-Asn-His-His-His-His-OH (chain 1 H-KHKHHKHHKHHKHHKHHKHK; chain 2 KKKHHHHNHHHH-OH; also: four copies of chain 1 branched on core chain 2, attachment points not given here) [Peptide 2070, original peptide HK, 2:3 Lys:His, 4 branches] | 127.4 nm (GFP, PEG) | 66.0 nm (GFP, non-PEG) | 94.5 nm (luciferase, PEG) | 58.5 nm (luciferase, non-PEG) |
| (H-Lys-His-Lys-His-His-Lys-His-Lys-His-His-Lys-His-Lys-His-His-Lys-His-Lys-His-Lys)4-Lys-Lys-Lys-His-His-His-His-Asn-His-His-His-His-OH (chain 1 H-KHKHHKHKHHKHKHHKHKHK; chain 2 KKKHHHHNHHHH-OH; also: four copies of chain 1 branched on core chain 2, attachment points not given here) [Peptide 2597, 9:11 Lys:His] | 90.9 nm (GFP, PEG) | 54.7 nm (GFP, non-PEG) | 86.0 nm (luciferase, PEG) | 51.3 nm (luciferase, non-PEG) |
| (H-Lys-His-Lys-His-Lys-His-Lys-His-Lys-His-Lys-His-Lys-His-Lys-His-Lys-His-His-Lys)4-Lys-Lys-Lys-His-His-His-His-Asn-His-His-His-His-OH (chain 1 H-KHKHKHKHKHKHKHKHKHHK; chain 2 KKKHHHHNHHHH-OH; also: four copies of chain 1 branched on core chain 2, attachment points not given here) [Peptide 2596, 1:1 Lys:His] | 124.1 nm (GFP, PEG) | 82.1 nm (GFP, non-PEG) | 77.4 nm (luciferase, PEG) | 64.3 nm (luciferase, non-PEG) |
| (H-Orn-His-Orn-His-His-Orn-His-His-Orn-His-His-Orn-His-His-Orn-His-His-Orn-His-Orn)4-Lys-Lys-Lys-His-His-His-His-Asn-His-His-His-His-OH [Peptide 2595] | 101.3 nm (GFP, PEG) | 73.7 nm (GFP, non-PEG) | 70.9 nm (luciferase, PEG) | 65.9 nm (luciferase, non-PEG) |
